Experiment [1] has as its target T1, purified human activated C1s protein, two-chain form (Homo sapiens, UniProt P09871 16-688).
T1 construct: Also used here for C1s acting in human serum assays; also called human C1s; active C1s
T1 sequence: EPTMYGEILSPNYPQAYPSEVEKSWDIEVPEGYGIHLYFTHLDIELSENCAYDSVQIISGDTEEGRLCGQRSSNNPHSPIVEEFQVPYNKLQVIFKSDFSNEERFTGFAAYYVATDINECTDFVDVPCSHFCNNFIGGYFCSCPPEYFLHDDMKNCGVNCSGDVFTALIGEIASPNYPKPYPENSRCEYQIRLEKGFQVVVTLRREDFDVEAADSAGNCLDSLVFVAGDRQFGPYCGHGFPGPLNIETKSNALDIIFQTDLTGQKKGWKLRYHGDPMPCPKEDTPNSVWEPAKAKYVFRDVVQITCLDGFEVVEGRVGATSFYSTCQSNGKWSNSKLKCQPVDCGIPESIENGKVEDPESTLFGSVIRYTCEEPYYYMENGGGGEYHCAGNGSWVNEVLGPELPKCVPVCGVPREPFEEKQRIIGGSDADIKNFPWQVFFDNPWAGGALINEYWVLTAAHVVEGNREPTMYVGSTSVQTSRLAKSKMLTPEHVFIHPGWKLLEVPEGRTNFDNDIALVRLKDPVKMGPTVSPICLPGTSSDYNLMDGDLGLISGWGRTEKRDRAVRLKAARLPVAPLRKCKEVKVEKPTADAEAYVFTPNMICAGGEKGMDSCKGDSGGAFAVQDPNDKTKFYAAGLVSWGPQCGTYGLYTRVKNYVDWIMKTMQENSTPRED
The experiment is described as follows: kinetic binding measurement, method not stated; Table 9, activated C1s.

For another experiment, the target named is T2, Inactive-C1s (Homo sapiens, UniProt P09871).
T2 construct: proenzyme (pro-C1s); also called pro-C1s
T2 sequence (single chain, looked up): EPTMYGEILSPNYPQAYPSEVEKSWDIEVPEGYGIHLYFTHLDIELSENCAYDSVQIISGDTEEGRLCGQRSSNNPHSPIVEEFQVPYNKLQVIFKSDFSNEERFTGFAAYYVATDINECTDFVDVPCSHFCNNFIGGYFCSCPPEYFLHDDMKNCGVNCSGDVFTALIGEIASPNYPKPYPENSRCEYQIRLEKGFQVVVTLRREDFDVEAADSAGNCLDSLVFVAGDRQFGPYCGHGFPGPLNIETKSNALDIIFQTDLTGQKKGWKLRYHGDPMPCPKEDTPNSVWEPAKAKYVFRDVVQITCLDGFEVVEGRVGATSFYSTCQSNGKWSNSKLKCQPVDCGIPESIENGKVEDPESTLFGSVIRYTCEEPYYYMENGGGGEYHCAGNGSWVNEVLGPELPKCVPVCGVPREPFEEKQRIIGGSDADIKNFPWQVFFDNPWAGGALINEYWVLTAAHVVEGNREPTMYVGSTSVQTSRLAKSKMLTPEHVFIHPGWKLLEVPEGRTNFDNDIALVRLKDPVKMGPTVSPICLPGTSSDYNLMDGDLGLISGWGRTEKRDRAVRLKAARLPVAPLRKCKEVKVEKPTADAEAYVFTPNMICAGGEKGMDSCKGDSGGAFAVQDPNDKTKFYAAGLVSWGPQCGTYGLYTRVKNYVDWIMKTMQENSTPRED
The experiment is described as follows: kinetic binding measurement, method not stated; Table 10, pro-C1s.

B1: VH1/Vk2 (antibody, V domains shown)
VH: EVMLVESGGGLVKPGGSLRLSCAASGFTFSNYAMSWVRQAPGKGLEWVATISSGGSHTYYLDSVKGRFTISRDNSKDTLYLQMSSLRAEDTALYYCARLFTGYAMDYWGQGTSVTVSS
VL: QIVLTQSPATLSLSPGERATMSCTASSSVSSSYLHWYQQKPGKAPKLWIYSTSNLASGVPSRFSGSGSGTDYTLTISSLQPEDFATYYCHQYYRLPPITFGQGTKLEIK
notes: member of group m7; also called VH1/Vκ2; VH variant 1 + Vk variant 2
In experiment [1], B1 gave a Kd of 0.262 nM, a koff of 0.000274 s⁻¹ and a kon of 1.05e+06 M⁻¹ s⁻¹. Also, in the experiment with Inactive-C1s, the affinity, expressed as Kd, was 0.229 nM; the koff is 0.000249 s⁻¹; the kon amounted to 1.09e+06 M⁻¹ s⁻¹.

B2: VH3/Vk2 (antibody, V domains shown)
VH: EVMLVESGGGLVKPGGSLRLSCAASGFTFSNYAMSWVRQAPGKGLEWVATISSGGSHTYYLDSVKGRFTISRDNSKDTLYLQMSSLRAEDTALYYCARLFTGYAMDYWGQGTSVTVSS
VL: QIVLTQSPATLSLSPGERATMSCTASSSVSSSYLHWYQQKPGKAPKLWIYSTSNLASGVPSRFSGSGSGTDYTLTISSLQPEDFATYYCHQYYRLPPITFGQGTKLEIK
notes: member of group m7; also called VH3/Vκ2; VH variant 3 + Vk variant 2
In experiment [1], B2 gave a dissociation constant (Kd) of 0.274 nM, a koff of 0.000311 s⁻¹ and a kon of 1.13e+06 M⁻¹ s⁻¹. Further, in the experiment with Inactive-C1s, binding was characterised by a dissociation constant (Kd) of 0.291 nM, the koff is 0.000315 s⁻¹ and the kon came to 1.08e+06 M⁻¹ s⁻¹.

B3: VH2/Vk1 (antibody, V domains shown)
VH: EVMLVESGGGLVKPGGSLRLSCAASGFTFSNYAMSWVRQAPGKGLEWVATISSGGSHTYYLDSVKGRFTISRDNSKDTLYLQMNSLRAEDTALYYCARLFTGYAMDYWGQGTLVTVSS
VL: QIVLTQSPAILSLSPGERATMSCTASSSVSSSYLHWYQQKPGKAPKLWIYSTSNLASGVPSRFSGSGSGTFYTLTISSLQAEDFATYYCHQYYRLPPITFGQGTKLEIK
notes: member of group m7; also called VH2/Vκ1; VH variant 2 + Vk variant 1
In experiment [1], B3 returned a Kd of 0.256 nM, a koff of 0.000274 s⁻¹ and an association rate constant (kon) of 1.07e+06 M⁻¹ s⁻¹. Besides, in the experiment with Inactive-C1s, binding was put at a Kd of 0.252 nM, the koff amounted to 0.000262 s⁻¹ and the kon was found to be 1.04e+06 M⁻¹ s⁻¹.

B4: VH4/Vk2 (antibody, V domains shown)
VH: EVQLVESGGGLVKPGGSLRLSCAASGFTFSNYAMSWVRQAPGKGLEWVATISSGGSHTYYLDSVKGRFTISRDNSKNTLYLQMNSLRAEDTALYYCARLFTGYAMDYWGQGTLVTVSS
VL: QIVLTQSPATLSLSPGERATMSCTASSSVSSSYLHWYQQKPGKAPKLWIYSTSNLASGVPSRFSGSGSGTDYTLTISSLQPEDFATYYCHQYYRLPPITFGQGTKLEIK
notes: member of group m7; also called VH4/Vκ2; VH variant 4 + Vk variant 2
In experiment [1], B4 had a Kd of 0.262 nM, an off-rate constant (koff) of 0.000264 s⁻¹ and a kon of 1e+06 M⁻¹ s⁻¹. In the experiment with Inactive-C1s, this molecule came in with a Kd of 0.262 nM, a koff of 0.000263 s⁻¹ and a kon of 1.01e+06 M⁻¹ s⁻¹.

B5: VH2/Vk2 (antibody, V domains shown)
VH: EVMLVESGGGLVKPGGSLRLSCAASGFTFSNYAMSWVRQAPGKGLEWVATISSGGSHTYYLDSVKGRFTISRDNSKDTLYLQMNSLRAEDTALYYCARLFTGYAMDYWGQGTLVTVSS
VL: QIVLTQSPATLSLSPGERATMSCTASSSVSSSYLHWYQQKPGKAPKLWIYSTSNLASGVPSRFSGSGSGTDYTLTISSLQPEDFATYYCHQYYRLPPITFGQGTKLEIK
notes: member of group m7; also called VH2/Vκ2; VH variant 2 + Vk variant 2
For B5, in experiment [1], binding was put at a Kd of 0.273 nM, the koff was 0.00028 s⁻¹ and the kon stood at 1.03e+06 M⁻¹ s⁻¹. In addition, in the experiment with Inactive-C1s, the affinity, expressed as Kd, was 0.271 nM; the koff amounted to 0.000269 s⁻¹; the kon stood at 993000 M⁻¹ s⁻¹.

B6: VH1/Vk1 (antibody, V domains shown)
VH: EVMLVESGGGLVKPGGSLRLSCAASGFTFSNYAMSWVRQAPGKGLEWVATISSGGSHTYYLDSVKGRFTISRDNSKDTLYLQMSSLRAEDTALYYCARLFTGYAMDYWGQGTSVTVSS
VL: QIVLTQSPAILSLSPGERATMSCTASSSVSSSYLHWYQQKPGKAPKLWIYSTSNLASGVPSRFSGSGSGTFYTLTISSLQAEDFATYYCHQYYRLPPITFGQGTKLEIK
notes: member of group m7; also called VH1/Vκ1; VH variant 1 + Vk variant 1
In the case of B6, in experiment [1], the Kd was 0.235 nM, the koff was 0.000228 s⁻¹ and the kon stood at 973000 M⁻¹ s⁻¹. In the experiment with Inactive-C1s, this molecule had a Kd of 0.191 nM, a koff of 0.000198 s⁻¹ and a kon of 1.04e+06 M⁻¹ s⁻¹.

B7: VH3/Vk1 (antibody, V domains shown)
VH: EVMLVESGGGLVKPGGSLRLSCAASGFTFSNYAMSWVRQAPGKGLEWVATISSGGSHTYYLDSVKGRFTISRDNSKDTLYLQMSSLRAEDTALYYCARLFTGYAMDYWGQGTSVTVSS
VL: QIVLTQSPAILSLSPGERATMSCTASSSVSSSYLHWYQQKPGKAPKLWIYSTSNLASGVPSRFSGSGSGTFYTLTISSLQAEDFATYYCHQYYRLPPITFGQGTKLEIK
notes: member of group m7; also called VH3/Vκ1; VH variant 3 + Vk variant 1
In experiment [1], B7 gave a Kd of 0.246 nM, a koff of 0.000254 s⁻¹ and a kon of 1.03e+06 M⁻¹ s⁻¹. For the same molecule, in the experiment with Inactive-C1s, binding was put at a Kd of 0.252 nM, the koff stood at 0.000255 s⁻¹ and the kon was found to be 1.02e+06 M⁻¹ s⁻¹.

B8: VH4/Vk1 (antibody, V domains shown)
VH: EVQLVESGGGLVKPGGSLRLSCAASGFTFSNYAMSWVRQAPGKGLEWVATISSGGSHTYYLDSVKGRFTISRDNSKNTLYLQMNSLRAEDTALYYCARLFTGYAMDYWGQGTLVTVSS
VL: QIVLTQSPAILSLSPGERATMSCTASSSVSSSYLHWYQQKPGKAPKLWIYSTSNLASGVPSRFSGSGSGTFYTLTISSLQAEDFATYYCHQYYRLPPITFGQGTKLEIK
notes: member of group m7; also called VH4/Vκ1; VH variant 4 + Vk variant 1
Take B8: in experiment [1], the Kd was determined as 0.228 nM, the koff stood at 0.000271 s⁻¹ and the kon stood at 1.19e+06 M⁻¹ s⁻¹. Besides, in the experiment with Inactive-C1s, the Kd was 0.291 nM, the koff was 0.000319 s⁻¹ and the kon came out at 1.1e+06 M⁻¹ s⁻¹.

B9: VH1/Vk3 (antibody, V domains shown)
VH: EVMLVESGGGLVKPGGSLRLSCAASGFTFSNYAMSWVRQAPGKGLEWVATISSGGSHTYYLDSVKGRFTISRDNSKDTLYLQMSSLRAEDTALYYCARLFTGYAMDYWGQGTSVTVSS
VL: QIVLTQSPATLSLSPGERATLSCTASSSVSSSYLHWYQQKPGKAPKLWIYSTSNLASGVPSRFSGSGSGTDYTLTISSLQPEDFATYYCHQYYRLPPITFGQGTKLEIK
notes: member of group m7; also called VH1/Vκ3; VH variant 1 + Vk variant 3
On to B9, for which, in experiment [1], binding was characterised by a dissociation constant (Kd) of 0.376 nM, the koff was 0.000343 s⁻¹ and the kon turned out to be 914000 M⁻¹ s⁻¹. In the experiment with Inactive-C1s, this molecule came in with a Kd of 0.303 nM, a koff of 0.000285 s⁻¹ and a kon of 941000 M⁻¹ s⁻¹.

B10: VH3/Vk3 (antibody, V domains shown)
VH: EVMLVESGGGLVKPGGSLRLSCAASGFTFSNYAMSWVRQAPGKGLEWVATISSGGSHTYYLDSVKGRFTISRDNSKDTLYLQMSSLRAEDTALYYCARLFTGYAMDYWGQGTSVTVSS
VL: QIVLTQSPATLSLSPGERATLSCTASSSVSSSYLHWYQQKPGKAPKLWIYSTSNLASGVPSRFSGSGSGTDYTLTISSLQPEDFATYYCHQYYRLPPITFGQGTKLEIK
notes: member of group m7; also called VH3/Vκ3; VH variant 3 + Vk variant 3
In the case of B10, in experiment [1], the affinity, expressed as Kd, was 0.335 nM; the koff worked out at 0.00036 s⁻¹; the kon is 1.08e+06 M⁻¹ s⁻¹. Also, in the experiment with Inactive-C1s, binding was characterised by a dissociation constant (Kd) of 0.331 nM, the koff was 0.000351 s⁻¹ and the kon amounted to 1.06e+06 M⁻¹ s⁻¹.

B11: VH4/Vk3 (antibody, V domains shown)
VH: EVQLVESGGGLVKPGGSLRLSCAASGFTFSNYAMSWVRQAPGKGLEWVATISSGGSHTYYLDSVKGRFTISRDNSKNTLYLQMNSLRAEDTALYYCARLFTGYAMDYWGQGTLVTVSS
VL: QIVLTQSPATLSLSPGERATLSCTASSSVSSSYLHWYQQKPGKAPKLWIYSTSNLASGVPSRFSGSGSGTDYTLTISSLQPEDFATYYCHQYYRLPPITFGQGTKLEIK
notes: member of group m7; also called VH4/Vκ3; VH variant 4 + Vk variant 3
As for B11, in experiment [1], the affinity, expressed as Kd, was 0.298 nM; the koff worked out at 0.00031 s⁻¹; the kon is 1.04e+06 M⁻¹ s⁻¹. In addition, in the experiment with Inactive-C1s, binding was put at a Kd of 0.278 nM, the koff stood at 0.000306 s⁻¹ and the kon was 1.1e+06 M⁻¹ s⁻¹.

B12: VH2/Vk3 (antibody, V domains shown)
VH: EVMLVESGGGLVKPGGSLRLSCAASGFTFSNYAMSWVRQAPGKGLEWVATISSGGSHTYYLDSVKGRFTISRDNSKDTLYLQMNSLRAEDTALYYCARLFTGYAMDYWGQGTLVTVSS
VL: QIVLTQSPATLSLSPGERATLSCTASSSVSSSYLHWYQQKPGKAPKLWIYSTSNLASGVPSRFSGSGSGTDYTLTISSLQPEDFATYYCHQYYRLPPITFGQGTKLEIK
notes: member of group m7; also called VH2/Vκ3; VH variant 2 + Vk variant 3
In experiment [1], B12 displayed a Kd of 0.296 nM, a koff of 0.000281 s⁻¹ and a kon of 948000 M⁻¹ s⁻¹. Further, in the experiment with Inactive-C1s, the Kd is 0.284 nM, the koff amounted to 0.000275 s⁻¹ and the kon was 968000 M⁻¹ s⁻¹.

A word on the Kd: it is the constant that tells how readily two partners part at equilibrium. High values mean weaker binding, low ones tighter binding. The koff is a measure of how fast the partners let go of each other. As a reminder, the kon is the rate constant with which the complex forms.

Values taken from US20150104448A1 (TRUE NORTH THERAPEUTICS, published 2015).
